From the domain aggregation screens of Martell et al. (2025)

Assay: soluble fraction after stress (log2 fold change); higher = more stays soluble; pooled small domains, quantitative proteomics
Settings: stress: pH 4
In short: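 Aggregation propensity here comes from the fold change in the soluble amount of each small protein domain after acid stress, measured in pooled custom libraries by high-throughput quantitative proteomics. The acid stress was pH 4. On the log2 scale, higher values mean more of the domain stayed soluble.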

Sequence	soluble fraction (log2)
HMGVEVPRGDGSTVVRVRAGSSLADFAERIGADPAALITVLFRMGEMATVNQSLDEDTFKLLGAELGYDVQ	-0.721
HMGTVRFYNKERGFGFVVSDDGESVFLPAKALPDGVSDLSPGTRVDYGAALGKKGSQ	-0.203
HMKNKIYGTIVSSTSGEETVYKVFQVDSSKDITYLFRPDMIRLAHENNQALEFNEETGRGKRIEMSDLPK	-0.0332
HMQKFLEATGENRDAAVENALEQLGLERDDVSVEVLEIGKKGFLGIGATPARVRVTYEAPDI	-1.51
HMRTLGADLRALRKARGLTLAGMADNMGKSVGWMSQIERDISEPSISDLRALAKLLDVSVSSLFR	-0.557
HMVGIVQKTFEPTGIAAEELMKTLKSDKSLDFGNVQILATPKSSTSRQVVVVSGRANDVDRVMMVLSNLDS	0.015
HMNPETPAQQAVRKRLIVSVQFYRRLKDTPLKAVWQVAARDTLVNGYNLFLKRNIHAFNDRTLSTPSALS	0.089
HMKIDEVSFAYIERTLFSMLGKLPTPVNKVIATIGEEKKETIWEVIRFLESENKLITNEDGTLQL	-1.77
HMSMEQAKAEEIEKLGDNAPERLQAAALFAEKFFPQDVMDAVYKITETADGVRAIEHIMQTVK	-0.37
HMNGAITLRVRPSDEGKRLDVFVVSQLTGYTRSFVAGLIGDRHFLVNGQPKKPGYRIKSSDTISGVIPAPA	0.157
HMRRADRLLQLIQILRRHRRPVTGDVMARELEVSLRTVYRDIATLTIEGVPIRGEAGVGYVLGEGY	0.211
HMPYFLKQSNTRSKGLYLQIYHSFYVPGKGSRNKSYKAIGYVSELIKNGIEDPITYAKNLVDELNNNSSTP	0.226
HMSDLGEIEKIVDEVLAENITKVQEYKDGKKGLMGMFMGQIMKKSGGKADPKIANQLLTEKL	0.138
HMQVSDLSAIDSLIDKVLSEQQAAVQDFRSGQGKAMGFLIGKVMQASDGKANPKVIRELMGKKLA	-0.0313
HMTDMYLTYQELRHLGVSQNLISMWKSRKSIDFHMLGGTLYVRYMSIPEQTRSKLALQNVERVYNSRE	0.0329
HMSWDNELLERAHKIIELYPQKRSALGPLLYLAQEKDGFISDDSIVEISNLVDITEVQVKSVSSFYSMY	-0.0573
HMVISLREINLIGVYGRPNARRALVRLSNGRYVRVEVGSDLDGGKVTAIGDEALNFVKRGRTYAIQLPA	-0.324
HMETLSVRERMTSIISLLNKHEDIEFSKLFNISEGRLGVVVTFLALLELVKESLVDVIQNQPMSKLYIGKK	-0.376
HMDDATIKVNIAAKFLNAGNNLFVDIDTTVLEGRVLLTGLVDTQEVRIDAVRLVWEVEGIREVINEIEIG	-2.1
HMVLTGTIKKYNNERGFGFISTSNFGDVFFHIKDFQKGEQPIPGREVYFEVVKKENKKRAIHVYYSD	-0.243
HMVGLTDLQRNVLVQIARGKSRQLISRTLKVTPAEISAALKVAQRRYRVASSTEVIVQALYDKTLSFHEIM	0.105
HMQQNDMTELRALAEKIISENDSVINDYKSGQGSALQFLIGQAMKETKGSANPQVISEIFTDLL	-0.548
HMEAKKVIAVHIIGEINKPGIVELEEGARVIDAIKKAGGTTEKADLAQINLAYILKDGQKIYIPNTEDN	-0.334
HMDTGPISGQVEADRVEVHGHLDGKISAQNVVVGQTGVVKGDIEFGENLRTEEGADIEGYIK	0.22
HMLQESDPEALRGIVKSVLVDHAAVAEEYRAGKQSVLQFLVGQGMKASKGAGNPGLIRDLMLEEL	-0.184
HMDDFPLKRGSKGNRVTLLQNALVKKYGAGILPKYGVDGMFGKEVEAALVHAKIPTTINEANYTKIV	0.104

Sequence	soluble fraction (log2)
HMAMDITLPLAEVRRQSLEQIERQYLNELMSKHLGRINRAAEAAGITTRQLHKLLTKYSIRKEDFK	0.0354
HMEQQEFIVPHDSEGQRLDLFLVSVLGTHSRSQIRKLIVNGHVKLENRAPRPNLPVRAGESVVVSMPEPT	-0.315
HMGPDGLFAKFREPETGKDLLITQNVFVEQVLIKGVLTRTLTDAEANTYRAPFVNPEKRFPIYVWPNELP	-0.0131
HMELAALKILNSPIGKIAIGTSENGLVKLDILTSGQTRAEFSDLPKAHKLALDAADQLAAYF	0.113
HMTATIEEVNELTQSARVNINVPYAAKDEAKAYGAKWDDVERTWYTTGENYAQNKDFFDGFNPTAS	-0.132
HMPREVKLPPDLLDALEASPEAKAFFLQLSYTHQKEYAQWIEEAKQEATRQRRLEKTVQMLLEGRRT	-0.0407
HMSSASETQYELALQAMRDGDNDAALRSLSTALASGFSDWQRIDEEPLLAALANDVRFQVLRSRWK	-0.92
HMSLIEQKSQIPLVQGGQRVDKVAAALFTDFSRAELTGWIQQGALTLDGAVVKPKYKVLGGEWLYLRASQS	-0.213
HMTPVKAPLPGVVTKINVSVGQQVKKGENVLVLEAMKMENNIAAEADGTVSGIAVKAGDSVLEGAVLLTI	-0.0107
HMIQKTHPALEIVKEYFSSQAASEFEAERFFNYYTSNGWLIGGKTKMKDWQAAARNWILNTAK	-0.255
HMRSNADALIGRTARVSQTIVENGFGRVALDGDDWKAQAADGSRIEEGQNVIVKDRDSIILTVEKE	0.256
HMDKQGGWLTMAEAAEKLGVTHHVIRRLIKEKILPAEQVMRHAPHQIRIVDLESDAVAEALRHR	0.155
HMDTTLFGLFQNVILTQEDYEELSRTIVEDLDGLIDRLSAYMTSTGKTYKNHKATLLSWYLQDEKKFK	-1.49
HMRTVPEALLGRAYETAETAIVLEGLEAKRTDVFHPTIGNGTVIRLEPASGSQVSAGGVIEIFVSKGTETI	-1.31
HMKPSTETLYATARINVRAAADTSAEKLGSIEMGEAVVRTGTDGDWSIIEYNGSTGYVKSEYLTANAGDAT	-0.188
HMVQIFIPVVHDDHWFLIVFSREEDTFYVLDSLPSLSRISTINGIISTLKEHLQQASVGPQYSVKVLPVK	0.144
HMQAATQVNIVGLFSNKAVVIINGGKPKTLSVGQTSEGVKLLAADSQTATLQIEGKTQQLGMGQAASVGG	0.107
HMITEDQVIARIGLLSPAEKSLLKDKLERFRRLTLSEQQHLREFHSALDNHDKRTDLLNVLRKYNDWVNQL	-0.736
HMTLSDDEFEIIKSLIIDTLKEEALTINALTKKINHKEAKTIQVIRFLLDNGLVAENNLMKLFVI	-1.54
HMEQQSIYLENRERMTINQVIDVDAFDEETLWANLKEGAVEISGSGLHIEKLDLAEGVLIVSGIIRAFAYV	-0.423
HMDITKPKISFEPGEMVRVVDGPFNDFSGVVEEVNYEKSKVRVAVLIFGRSTPVELQFNQIEK	-0.523
HMGAKVFTVPNLIGKYAIEAGIILKKEGLSEGEVKEENSDKYAAGQIIDQYPAADSPAKENDKINYVVSIG	-0.0221
HMTKLTPLEVNLYAKKLANDPEFGSKHIEPGESFSQAEERLRVQLSQQEYVQKYSKYLKKLKASA	0.0433
HMDRELVALVQKALSQLSEQQRRIVELHVMEGMKYLEIADLLQLSENTVRTHLKRAYKILRENH	-0.921
HMTSPELIELGERIRKRRQEMNLSQEALAEKAGISINTVSRVEGGQTAMSIEIFRKMIEILETDANGL	-0.804
HMQIVPVDYSTFMQSIDDKTVDHVEIQSNQILYTVKDDHKKYKTGIMNDPTLAQRLMESGATFTQD	0.185

Sequence	soluble fraction (log2)
HMVNPIDFYLLFRTELQRLAEHPITVDRLTEVTGLNKLQVLDWLKRAEQDGLVKKLNRPTRYQLN	-0.536
HMIEEIETQFLFDFGLIGHPNSAKIREKLSEALGIGYVNGKQLQKRLMMFGITKQQVVDVLTD	-2.3
HMKEFIPPVLDDVLKFFSGSLLPDWENQGRLFFSHYNSQGWRKGTGVQVTDWDSLANKWILDEKIKRDARS	-0.214
HMIRVGRPQYKRGEFVSFDFDNGRKKTEMYGRVDVIDSYGTFGQGREVSYDIRASDGILYKHIPESSVYGF	0.28
HMFAATGTVNTEGSSLRLRAEASTSSSVLKQLSHGTQVDVLSGLVDGWYQVSYKGTTGYVSGEYLTVTE	-0.000126
HMSIYQYFNISEINSIDDLKKQYFKLAKKYHPDAGGDKVSFQELQNEYEQLTKKILSGAELNADELKTE	-0.163
HMSILDEAEFKKIESALLDFITNNIFTVKELLQASRGIKQDKFWKVFQFLQSERKVVVNELGYIEL	-0.513
HMSSKRDQFIVLGQEILEKMFKNEGLEFSEKGLLAVMPNFEAESINDIYAKVGEGLISGWDVMKAVYPAY	-0.841
HMGSQSYVAIVNERFKESDIVELGGSVGSRTGDIITLHFRNSSPNELKNITGIVYLQVANKVTPKL	-0.875
HMRSASFDIMSQKQSDATLGYERVYDTETNEVYKAYNGFTDDYDGERYKSISDNMYTKGISGYIEK	-0.151
HMKALPSAEDVALARESGRVLSTVLQTRAETQQIDFHDDKGAVRSVTLPTTALRLLLDVLTEIGQGNAV	-0.161
HMSTMNRLPRHEQILKLVRANGFMPIEELARLLDVTPQTIRRDINTLSEENLLRRFHGGAALGPSVE	0.255
HMKNPLIIGMTKDKIIELIGMPDNIKFLDSSLSKSEVWNYDKFGKKLYIKDEKLYQIENIEE	-0.491
HMGKKIVERRNTILNMVNKYGTLDFPQLRDAFPDVSDVTLRKDLQYLDSTKQAIRTHGGIKSI	-0.00897
HMRAGEAVTGQVIGVKEDEIILSIAGSKSEGIITRSEFTNEPNVDLTTKVSVGDELEVKVLKVNDGEGMAS	-0.244
HMVDVEMLTTVSDHIEAKLLQGILENHGIPSYSVDEESGEYMRVYMGYSIFGEKIYVRASDLLAAQGYL	-1.93
HMKAERLLALLTILLSGKRVSARWLSEELEVSERTVYRDVEALSEAGFPVYATTGRDGGFSLIDGF	-1.18
HMLEPGIAVLKTLMSQYRLGVADLPELGSKSNVSKLLNAVEGKKLTRQHIEALSKRFAVSPALF	0.114
HMNAVITTQKAKQIALAHAGLSEADVNYVKAELENDDGVQVYDIEFYSKNIEYDYDINAVTGEIMSFDHDI	-0.623
HMAVPMTPGELVGSRVRVLWWKDGRGEVVALARGHQATLPARSEEPLRTGADAVVLEADEGTLVVTS	-0.192
HMYVEVPNFIGVPLVKVQSELASLGLVFNKSVVYQTSPYLKGNILDQRPLPGEVVPLNTEMSFTVSSGPA	-0.686
HMILALAISSEEDDARIYATYADRLREAYPASARVFEGMVDEEHEHRRRLIDLFQRRFGDTIPLVRREHV	-0.836
HMIHEQSLHKIRNFIGSLPESLRTAFTLREQDGLSYEEIGKITNTPIGTVRSRIYRARESILDHINQE	-0.2
HMHAPLEVGSVVRIEGQKALGTILSISDREAIVALGALKTTIPLKRLHGVSPAEAQRHLRKTTPAQAVR	0.0546
